Measurements as given in US7179886B1, “Cloning and identification of the motilin receptor” (Merck & Co., Inc., priority 1999, dated 2007).
Values belong to the molecule of their own block, whether it stands above or below them. No end group written: not given here. *: point of attachment. 125I = [125I]*

Assays:
[1] = biological target: T1, Cloned MTL-1A Receptor (human) (Homo sapiens, UniProt O43193); test: [^125I] human motilin binding to crude membranes from HEK-293/aeq17 cells transfected with MTL-R1A cDNA; conditions: for IC50: competition binding, crude membranes, 20° C. for 1 hr., read-out: [^125I] hmotilin binding (IC50)
T1 construct: The full length open reading frame appears to contain 412 amino acids; expressed in transfected cells; host or cells: HEK-293/aeq17 (293-AEQ17), transient transfection with lipofectamine
Experimental: Crude cell membranes were prepared on ice, 48 hrs. post-transfection. […] Bound radioligand was separated by rapid vacuum filtration (Brandel 48-well cell harvester) through GF/C filters pretreated for 1 hr. with 0.5% polyethylenimine.

[2] = biological target: T1, Cloned MTL-1A Receptor (human); test: Aequorin bioluminescence assay in HEK-293/aeq17 cells transfected with MTL-R1A; type: cell-based; conditions: for EC50: HEK-293/aeq17 cells transfected with human MTL-R1A; for activity in MTL1-A functional and binding assays: high (10 μM) doses, statement covers functional and binding assays
Text: A high-throughput assay was developed which measures Ca^2+realease with the bioluminescent Ca^2+sensitive-aequorin reporter protein (capable of measuring ligand-induced IP3-coupled mobilization of intracellular calcium and concomitant calcium-induced aequorin bioluminescence). […] The DNA and deduced amino acid sequence are given in SEQ. ID. NO.:2 and SEQ. ID. NO.:3, respectively.
To identify a ligand for this orphan GPCR and to determine whether the full length, 7 TM domain GPR38-A is a functional GPCR, a high-throughput assay was developed which measures Ca^2+ release with the bioluminescent Ca^2+ sensitive aequorin reporter protein (capable of measuring ligand-induced IP3-coupled mobilization of intracellular calcium and concomitant calcium-induced aequorin bioluminescence).
A broad set of peptide and non-peptide molecules was tested at a single concentration in transiently transfected HEK-293/aeq17 cells (100 nM peptide, 10 μM non-peptide).
The aequorin bioluminescence assay is a reliable test for identifying G protein-coupled receptors which couple through the Gα protein subunit family consisting of Gq and G11 which leads to the activation of phospholipase C, mobilization of intracellular calcium and activation of protein kinase C. Measurement of MTL-1A expression in the aequorin-expressing stable reporter cell line 293-AEQ17 (Button, D. et. al., 1993 Cell Calcium 14: p. 663–671.) was performed using a Luminoskan RT luminometer (Labsystems Inc., Gaithersburg, Md.).
293-AEQ17 cells (8×10^5 cells plated 18 hrs. before transfection in a T75 flask) were transfected with 22 μg of human MTL-R1A plasmid DNA: 264 μg lipofectamine. Following approximately 40 hours of expression the apo-aequorin in the cells was charged for 4 hours with coelenterazine (10 μM) under reducing conditions (300 μM reduced glutathione) in ECB buffer (140 mM NaCl, 20 mM KCl, 20 mM HEPES—NaOH [pH=7.4], 5 mM glucose, 1 mM MgCl2, 1 mM CaCl2, 0.1 mg/ml bovine serum albumin). The cells were harvested, washed once in ECB medium and resuspended to 500,000 cells/ml. 100 μl of cell suspension (corresponding to 5×10^4 cells) was then injected into the test plate, and the integrated light emission was recorded over 30 seconds, in 0.5 second units. 20 μL of lysis buffer (0.1% final Triton X-100 concentration) was then injected and the integrated light emission recorded over 10 seconds, in 0.5 second units. The “fractional response” values for each well were calculated by taking the ratio of the integrated response to the initial challenge to the total integrated luminescence including the Triton X-100 lysis response.

[3] = test system: cells that were not transfected with the MTL-R1A cDNA expression vector; test: Aequorin bioluminescence assay in non-transfected cells; type: cell-based, human; conditions: concentrations as high as 10 μM
[4] = biological target: T2, motilin receptor spliced form A (MTL-R1A), human (human, UniProt O43193 1-412); test: cell-based or functional assay
[5] = biological target: T2, motilin receptor spliced form A …; test: displacement of [125I] human motilin from crude membranes of MTL-R1A transfected HEK-293/aeq17 cells
Experimental: Crude cell membranes were prepared on ice, 48 hrs. post-transfection. Each T-75 flask was washed twice with 10 ml of PBS, once with 1 ml homogenization buffer (50 mM Tris-HCl [pH 7.4], 10 mM MgCl_2. 10 ml of homogenization buffer was added to each flask, cells were removed by scraping and then homogenized using a Polytron device (Brinkmann, Syosset, N.Y.; 3 bursts of 10 sec. at setting 4). The homogenate was centrifuged for 20 min. at 11,000×g at 0° C. and the resulting crude membrane pellet (chiefly containing cell membranes and nuclei) was resuspended in homogenization buffer supplemented with 1.5% BSA (0.5 ml T75 flask) and kept on ice.
Bound radioligand was separated by rapid vacuum filtration (Brandel 48-well cell harvester) through GF/C filters pretreated for 1 hr. with 0.5% polyethylenimine. After application of the membrane suspension to the filter, the filters were washed 3 times with 3 ml each of ice-cold 50 mM Tris-HCl [pH 7.4], 10 mM MgCl_2, and the bound radioactivity on the filters was quantitated by gamma counting. […] Competition binding data were analyzed by a non-linear curve-fitting program (Prism V, version 2.0; GraphPad Software, San Diego, Calif.).

[6] = biological target: T2, motilin receptor spliced form A …; test: cell-based or functional assay; remark: listed apart in the source
[7] = biological target: T2, motilin receptor spliced form A …; test: direct radioligand binding on cell membranes from transfected cells

T1 sequence (O43193 whole entry): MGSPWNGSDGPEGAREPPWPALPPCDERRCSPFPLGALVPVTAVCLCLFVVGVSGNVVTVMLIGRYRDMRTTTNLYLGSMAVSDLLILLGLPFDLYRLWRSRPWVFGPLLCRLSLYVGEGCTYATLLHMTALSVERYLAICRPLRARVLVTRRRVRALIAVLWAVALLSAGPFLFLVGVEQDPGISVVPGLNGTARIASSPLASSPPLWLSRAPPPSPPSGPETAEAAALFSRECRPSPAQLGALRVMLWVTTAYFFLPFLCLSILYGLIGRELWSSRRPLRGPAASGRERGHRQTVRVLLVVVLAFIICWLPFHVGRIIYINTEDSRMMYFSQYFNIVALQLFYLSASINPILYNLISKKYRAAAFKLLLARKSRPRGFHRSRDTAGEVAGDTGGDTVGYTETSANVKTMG
T2 sequence (O43193 whole entry, canonical isoform): as the sequence (O43193 whole entry) above

- IC50 [1]: > 10000 nM
- EC50 [2]: > 10000 nM
- activity in MTL1-A functional and binding assays [2]: inactive
Molecule: CCN(CC)CCNC(=O)c1cc(Cl)c(N)cc1OC [metoclopramide]

- IC50 [1]: 613 nM
- EC50 [2]: 1950 nM
Molecule: CC[C@H]1OC(=O)[C@H](C)[C@@H](O[C@H]2C[C@@](C)(OC)[C@@H](O)[C@H](C)O2)[C@H](C)[C@@H](O[C@@H]2O[C@H](C)C[C@H](N(C)C)[C@H]2O)[C@](C)(O)C[C@@H](C)/C(=N\OCOCCOC)[C@H](C)[C@@H](O)[C@]1(C)O [roxithromycin]

- Aequorin Assay (EC50 nM) [4]: 4.4 nM
Molecule: FVPIFTHSELQKIREKERNKGQ (peptide, UniProt P19863 1-22, looked up) [canine motilin]

- bioluminescent response (aequorin assay, 100 nM peptide, transfected HEK-293/aeq17 cells) [6]: > 4 fold over background
Molecule: FVPIFTYGELQRMQEKERNKGQ (peptide, UniProt P12872 26-47, looked up) [human motilin]

- Aequorin Assay (EC50 nM) [4]: 138 nM
- IC50 [5]: 127 nM
B2: 1-11 MTL (peptide, UniProt P12872 26-36, looked up)
peptide: FVPIFTYGELQ
notes: range 1-11; The range counts on mature motilin, not on the precursor entry

- Aequorin Assay (EC50 nM) [4]: > 10000 nM
- IC50 [5]: 1100 nM
B4: 10-22 MTL (peptide, UniProt P12872 35-47, looked up)
peptide: LQRMQEKERNKGQ
notes: range 10-22; The range counts on mature motilin, not on the precursor entry

- Aequorin Assay (EC50 nM) [4]: 3.8 nM
- IC50 [5]: 0.9 nM
B6: 1-13 MTL (peptide, UniProt P12872 26-38, looked up)
peptide: FVPIFTYGELQRM
notes: range 1-13; The range counts on mature motilin, not on the precursor entry

Further lines, the molecule ahead of its results:

Molecule: Nc1nc2c(ncn2[C@@H]2O[C@H](COP(=O)(O)OP(=O)(O)OP(O)(O)=S)[C@@H](O)[C@H]2O)c(=O)[nH]1 [GTPγS]
- inhibition of [^125I] human motilin binding ([1]; 100 nM GTPγS): > 80%

Molecule: CC[C@H](C)[C@H](NC(=O)[C@@H]1CCCN1C(=O)[C@@H](NC(=O)[C@@H](N)Cc1ccccc1)C(C)C)C(=O)N[C@@H](Cc1ccccc1)C(=O)N[C@H](C(=O)N[C@@H](Cc1ccc(O)cc1)C(=O)NCC(=O)N[C@@H](CCC(=O)O)C(=O)N[C@@H](CC(C)C)C(=O)N[C@@H](CCC(N)=O)C(=O)N[C@@H](CCCNC(=N)N)C(=O)N[C@@H](CCSC)C(=O)N[C@@H](CCC(N)=O)C(=O)N[C@@H](CCC(=O)O)C(=O)N[C@@H](CCCCN)C(=O)N[C@@H](CCC(=O)O)C(=O)N[C@@H](CCCNC(=N)N)C(=O)N[C@@H](CC(N)=O)C(=O)N[C@@H](CCCCN)C(=O)NCC(=O)N[C@@H](CCC(N)=O)C(=O)O)[C@@H](C)O [human motilin]
- bioluminescent response in non-transfected cells [3]: no bioluminescent response above background levels

Molecule: FVPIFTHSELQKIREKERNKGQ [canine motilin]
- IC50 [1]: 0.2 nM

Molecule: COc1cc(N)c(Cl)cc1C(=O)NC1CCN(CCCOc2ccc(F)cc2)CC1OC (centres unmarked) [cisapride]
- IC50 [1]: > 10000 nM
- EC50 [2]: > 10000 nM
- activity in MTL1-A functional and binding assays [2]: inactive

B1: 1-12 MTL (peptide, UniProt P12872 26-37, looked up)
peptide: FVPIFTYGELQR
notes: range 1-12; The range counts on mature motilin, not on the precursor entry
- Aequorin Assay (EC50 nM) [4]: 72 nM
- IC50 [5]: 14 nM

Molecule: FVPIFTY(125I)GELQRMQEKERNKGQ (peptide, UniProt P12872 26-47, looked up, mature) [[125I]-Tyr7-human motilin]
- Kd [7]: 0.1 nM

B3: Leu13 MTL (peptide, UniProt P12872 26-47, looked up)
peptide: FVPIFTYGELQRLQEKERNKGQ
notes: mature; Position 13 counts on the mature peptide, not on the precursor
- Aequorin Assay (EC50 nM) [4]: 3.9 nM
- IC50 [5]: 0.2 nM

B5: 1-19 MTL (peptide, UniProt P12872 26-44, looked up)
peptide: FVPIFTYGELQRMQEKERN
notes: range 1-19; The range counts on mature motilin, not on the precursor entry
- Aequorin Assay (EC50 nM) [4]: 4.1 nM
- IC50 [5]: 0.3 nM
